Target: cynomolgus heparanase (cynomolgus)
Assay: cross species capture ELISA, heparanase captured by rabbit anti-heparanase antibody, exhaustive supernatant 1:5, anti-human IgG Fc detection

Sequence of cynomolgus heparanase (cynomolgus) (chain, as listed by the source): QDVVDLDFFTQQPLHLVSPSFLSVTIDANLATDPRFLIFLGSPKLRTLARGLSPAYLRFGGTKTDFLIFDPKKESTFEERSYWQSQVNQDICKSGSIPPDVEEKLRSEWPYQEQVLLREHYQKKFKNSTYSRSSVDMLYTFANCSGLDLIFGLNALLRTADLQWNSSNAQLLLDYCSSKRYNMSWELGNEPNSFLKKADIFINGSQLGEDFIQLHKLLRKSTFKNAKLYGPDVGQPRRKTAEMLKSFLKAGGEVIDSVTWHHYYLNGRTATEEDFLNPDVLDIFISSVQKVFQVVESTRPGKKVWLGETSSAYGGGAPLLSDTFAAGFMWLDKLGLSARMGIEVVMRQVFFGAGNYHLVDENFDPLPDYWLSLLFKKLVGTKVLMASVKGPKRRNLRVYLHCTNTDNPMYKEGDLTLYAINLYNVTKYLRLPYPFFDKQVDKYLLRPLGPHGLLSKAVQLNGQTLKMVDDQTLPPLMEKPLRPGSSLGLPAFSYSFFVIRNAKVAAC

B1: monoclonal antibody 15A1.2 (antibody, V domains shown)
VH: QVQLVQSGAEVKKPGASVKVSCKVSGYTLTELSMHWVRQAPGKGLEWMGGFDPEDGETIFAQKFQGRVTMTEDTSTDTAYMELSSLRSEDTAVYYCATGLRFLEWFLWGWDVWGQGTTVTVSS
VL: DIQMTQSPSSVSASVGDRVTITCRASQGISNWLAWYQQTPGKAPQLLIYGASSLQSGVPSRFSGSGSGTDFTLTISSLQPEDFATYYCQQADSFPPTFGQGTKVEIK
OD, binding to heparanase (Cyno): 0.11 OD units

Reference: patent US20100233154A1, “TARGETED BINDING AGENTS DIRECTED TO HEPARANASE AND USES THEREOF 463” (MedImmune Limited, priority 2008, published 2010)
